Patent US20210353712A1, “METHODS OF DIAGNOSING AND TREATING VASCULAR ASSOCIATED MACULOPATHY AND SYMPTOMS THEREOF” (University of Utah Research Foundation, priority 2011, published 2021)

Tested on: DQ elastin
Assay: In vitro elastin degradation assay
Type: biochemical
Procedure: Therefore, studies were performed to determine whether HTRA1 degrades elastin, a major component of Bruch's membrane. Recombinant HTRA1 was incubated with dye-labeled elastin at 37° C. for two hrs and the fluorescence of the released elastin peptides was monitored at 513 nm. […] In an additional positive control assay, HTRA1 elastase activity was measured by fluorescence using various concentrations of elastase enzyme starting with 0.04 ng/well of porcine pancreatic elastase and 100 ng/well of Protealmmun HtrA1. DQ Elastin substrate was 25 ug/ml.
Recombinant HtrA1 protein expressed and purified from Sf9 cells was purchased from Protealmmun (Cat. #30600103). The HtrA1 elastase activity was measured using a fluorescent EnzChekElastase Assay Kit from Invitrogen (Cat. #E12056) using the protocol provided, except substrate concentration was 12.50 ? g/mL. HtrA1 concentration was titrated from 200-12.5 ng/well in two-fold dilutions. Activity was measured in 30-minute increments for a total of 2 hours.
The explanation for the elastin degradation in both the Bruch's membrane and the choroid vessels in the HTRA1 mice is that the protease activity of overexpressed HTRA1, which is secreted from RPE, caused the degeneration. Since HTRA1 was not known to have elastase activity, an in vitro elastin degradation assay was performed using DQ elastin, a soluble elastin labeled with quenched BODIPY FL dye, as a substrate. Purified recombinant human HTRA1 degraded elastin with a specific activity of 4.4±0.8 u/mg (n=3). […] To eliminate the possibility that the depletion of the elastic layers of the choroidal vessels and Bruch's membrane was the result of downregulation of elastin expression, we analyzed the protein level of soluble elastin in the RPE/choroid of hHTRA1^+ and WT mice by western blot. […] This is similar to what has been observed in human donors with AMD and with aberrant choriocapillaris lobules.

Substance	Elastase specific activity (DQ elastin substrate) [u/mg]	Degradation of dye-labeled elastin (37° C. for two hrs, fluorescence at 513 nm)	Elastase activity, times less than porcine pancreas elastase (DQ elastin substrate) [times]
porcine pancreas elastase: reference elastase enzyme [reference compound]	135±5.5	–	–
recombinant human HTRA1: purified recombinant human HTRA1 serine protease	4.4±0.8	degraded dye-labeled elastin	~30
